Source: paper doi:10.1101/2021.08.23.457303 (bioRxiv, 2021)

What was measured:
[1] = target: T1, His-tagged human Bin1 isoform 8, wild type, full length (human, UniProt O00499-8 1-454); assay: pull-down
T1 sequence: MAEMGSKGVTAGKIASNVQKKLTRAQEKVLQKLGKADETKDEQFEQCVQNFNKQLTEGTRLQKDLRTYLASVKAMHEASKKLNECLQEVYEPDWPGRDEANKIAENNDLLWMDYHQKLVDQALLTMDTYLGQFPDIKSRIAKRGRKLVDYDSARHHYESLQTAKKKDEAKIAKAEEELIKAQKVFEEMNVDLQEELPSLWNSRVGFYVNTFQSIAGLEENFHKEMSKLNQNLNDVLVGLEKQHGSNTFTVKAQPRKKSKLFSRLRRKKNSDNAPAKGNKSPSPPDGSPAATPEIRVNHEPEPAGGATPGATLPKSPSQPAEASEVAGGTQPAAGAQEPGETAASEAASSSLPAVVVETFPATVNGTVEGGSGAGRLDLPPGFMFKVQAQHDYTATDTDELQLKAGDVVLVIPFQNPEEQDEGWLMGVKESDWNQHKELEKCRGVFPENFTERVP

[2] = target: T2, His-tagged human Bin1 isoform 8 K436X (CNM-associated, truncated SH3 domain) (human, UniProt O00499-8 1-435); assay: pull-down
T2 sequence: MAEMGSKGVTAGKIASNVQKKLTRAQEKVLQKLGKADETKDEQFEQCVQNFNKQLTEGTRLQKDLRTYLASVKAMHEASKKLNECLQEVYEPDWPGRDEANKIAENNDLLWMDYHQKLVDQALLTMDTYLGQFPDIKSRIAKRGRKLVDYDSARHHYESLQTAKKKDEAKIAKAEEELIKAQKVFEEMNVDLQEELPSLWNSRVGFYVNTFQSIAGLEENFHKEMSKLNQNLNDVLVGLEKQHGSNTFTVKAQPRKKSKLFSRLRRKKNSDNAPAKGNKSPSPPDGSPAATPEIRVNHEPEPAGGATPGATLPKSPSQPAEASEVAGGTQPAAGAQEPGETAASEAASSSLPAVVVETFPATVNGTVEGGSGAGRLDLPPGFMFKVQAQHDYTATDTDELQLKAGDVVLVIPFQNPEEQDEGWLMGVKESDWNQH

- Kd [1]: 180 nM
- Kd [2]: 267 nM
B1: GST-tagged PRD domain of Dyn2 (domain or fragment)
chain: PVPPPVDDTWLQSASSHSPTPQRRPVSSIHPPGRPPAVRGPTPGPPLIPVPVGAAASFSAPPIPSRPGPQSVFANSDLFPAPPQIPSRPVRIPPGIPPGVPSRRPPAAPSRPTIIRPAEPSLLD
